We go through one substance from paper PMC4650709.

This experiment concerns the target Ara h 1 (peanut). The experiment can be described thus: SEC; purified Ara h 1; conditions not given. In general terms: In gel filtration, larger molecules generally elute earlier.

Regarding Ara h 1 (natural protein), the stoichiometry N was 3.

Broadly, the stoichiometry N is a count of units in the complex or per binding partner.
